Where “and” joins values, the source holds several entries; their conditions need not be identical. Equal entries are not always repeated. Entries after “also recorded” stand apart in the source; their conditions may differ.
Tests used:
[1] = tested on: HMVEC; test: VEGF induced migration of HMVECs (modified Boyden chamber); type: cell-based, human
[2] = tested on: ARF6; test: VEGF induced ARF6-GTP, HMVEC, SecinH3; type: cell-based, human
[3] = tested on: neovascular tuft formation; test: Laser-induced choroidal neovascularization, SecinH3; type: in vivo; conditions: wild-type mice, intravitreal injection, final concentration 21.6 μM, versus DMSO
[4] = tested on: neovascular tuft formation; test: Oxygen-induced retinopathy, SecinH3; type: in vivo; conditions: wild-type mice, intraocular injection, final concentration 21.6 μM, versus DMSO
[5] = tested on: Cdc42; test: Cdc42-GTP levels, endothelial cells on fibronectin; type: cell-based; conditions: presence of Slit2
[6] = tested on: Rho; test: Rho-GTP levels, endothelial cells on fibronectin; type: cell-based; conditions: presence of Slit2
[7] = tested on: retinal endothelium; test: VEGF induced retinal permeability (Evans Blue), Slit2; type: in vivo, mice; conditions: intravitreal co-injection
[8] = tested on: VEGFR2; test: VEGF-A-induced VEGFR2 phosphorylation, HMVEC; type: cell-based, human; conditions: 5 minutes
[9] = tested on: Avian Flu Virus, strain H5N1/Duck/Mn/1525/81; parameters: species or system BALB/c mice; conditions: mouse, in vivo
[10] = tested on: neovascularization of the retina; test: Retinopathy of prematurity: percent neovascularization of the retina (FIG. 12); type: in vivo; conditions: wildtype mice, Slit versus Mock preparation, N=6, P<0.003
[11] = tested on: Rac1; test: VEGF-A-dependent Rac1 activation, HMVEC; type: cell-based, human; conditions: endothelial cell monolayers (HMVEC)
[12] = tested on: human microvascular endothelial cells; test: Haptotaxis migration assay, human microvascular endothelial cells; type: cell-based; conditions: transwells coated with fibronectin and Slit2
[13] = tested on: lung endothelial cells; test: VEGF-A tube formation assay, murine lung endothelial cells; type: cell-based, mice
[14] = tested on: endothelial cells; test: Spreading assay, endothelial cells; type: cell-based, human
[15] = tested on: c-Src; test: VEGF-A-stimulated c-Src phosphorylation, HMVEC; type: cell-based, human; conditions: endothelial cells (HMVEC)
[16] = tested on: ARF6; test: ARF6 activation assay (GST-GGA3), endothelial cells on VEGF-165; type: cell-based; conditions: endothelial cells on dishes coated with VEGF-165 and Slit2
[17] = tested on: lung endothelial cells; test: VEGF-A endothelial cell migration assay, murine lung endothelial cells; type: cell-based, mice
[18] = tested on: pathological angiogenesis; test: Oxygen-induced retinopathy (OIR), Slit2N; type: in vivo; conditions: Robo4^+/+ mice, intravitreal administration
[19] = tested on: ARF6; test: ARF6 activation assay (GST-GGA3), endothelial cells on fibronectin; type: cell-based; conditions: endothelial cells on fibronectin and Slit2
[20] = tested on: lung endothelial cells; test: In vitro permeability assay (Transwell, HRP); type: cell-based, mice; conditions: Robo4^+/+ endothelial cell monolayers, pre-treatment with Slit2
[21] = tested on: Rac; test: VEGF-induced Rac activation in HUVEC; type: cell-based, human; conditions: GST-PBD pull down
[22] = tested on: murine lung endothelial cells; test: bFGF-induced tube formation on matrigel; type: cell-based
[23] = tested on: dermal permeability; test: Miles assay / VEGF-induced dermal permeability; type: in vivo; conditions: Robo4^+/+ mice, concomitant intradermal Slit2
[24] = tested on: choroidal neovascularization; test: Laser-induced choroidal neovascularization (CNV), Slit2N; type: in vivo; conditions: Robo4^+/+ mice, intravitreal administration
[25] = tested on: LPS; test: Acute lung injury, intratracheal LPS, bronchoalveolar lavage; type: in vivo, mice; conditions: versus Mock preparation
[26] = tested on: Rac; test: Rac-GTP levels, endothelial cells on fibronectin; type: cell-based; conditions: endothelial cells on fibronectin and Slit2
[27] = tested on: endothelial cell migration; test: VEGF-induced endothelial cell migration by Slit constructs (FIG. 23); type: cell-based; conditions: Slit constructs 2 nM, compared with full length Slit2; listed as Slit2-D1
[28] = endothelial cells pre-treated with inhibitor or vehicle (Example 28)

## COc1nc(-c2ccc3c(c2)OCO3)n(-c2ccc(NC(=O)CSc3ccccc3)cc2)n1 [SecinH3]
[1]; HMVEC, 15 ng/ml VEGF-165, 15 μM Secin-H3, 3 h
  VEGF-165 induced cell migration response: attenuated; also recorded: inhibits
[1]; [28]
  VEGF-induced cell migration: prevented
[2]; HMVEC, 20 ng/ml VEGF, 50 μM Secin-H3
  accumulation of ARF6-GTP: blocks; also recorded: inhibits
[2]; [28]
  VEGF-induced Arf6 activation: prevented
[3]
  neovascular tuft formation in CNV: inhibited
[4]
  neovascular tuft formation in OIR: inhibited

B1: Slit2N (protein)
chain: QACPAQCSCSGSTVDCHGLALRSVPRNIPRNTERLDLNGNNITRITKTDFAGLRHLRVLQLMENKISTIERGAFQDLKELERLRLNRNHLQLFPELLFLGTAKLYRLDLSENQIQAIPRKAFRGAVDIKNLQLDYNQISCIEDGAFRALRDLEVLTLNNNNITRLSVASFNHMPKLRTFRLHSNNLYCDCHLAWLSDWLRQRPRVGLYTQCMGPSHLRGHNVAEVQKREFVCSGHQSFMAPSCSVLHCPAACTCSNNIVDCRGKGLTEIPTNLPETITEIRLEQNTIKVIPPGAFSPYKKLRRIDLSNNQISELAPDAFQGLRSLNSLVLYGNKITELPKSLFEGLFSLQLLLLNANKINCLRVDAFQDLHNLNLLSLYDNKLQTIAKGTFSPLRAIQTMHLAQNPFICDCHLKWLADYLHTNPIETSGARCTSPRRLANKRIGQIKSKKFRCSAKEQYFIPGTEDYRSKLSGDCFADLACPEKCRCEGTTVDCSNQKLNKIPEHIPQYTAELRLNNNEFTVLEATGIFKKLPQLRKINFSNNKITDIEEGAFEGASGVNEILLTSNRLENVQHKMFKGLESLKTLMLRSNRITCVGNDSFIGLSSVRLLSLYDNQITTVAPGAFDTLHSLSTLNLLANPFNCNCYLAWLGEWLRKKRIVTGNPRCQKPYFLKEIPIQDVAIQDFTCDDGNDDNSCSPLSRCPTECTCLDTVVRCSNKGLKVLPKGIPRDVTELYLDGNQFTLVPKELSNYKHLTLIDLSNNRISTLSNQSFSNMTQLLTLILSYNRLRCIPPRTFDGLKSLRLLSLHGNDISVVPEGAFNDLSALSHLAIGANPLYCDCNMQWLSDWVKSEYKEPGIARCAGPGEMADKLLLTTPSKKFTCQGPVDVNILAKCNPCLSNPCKNDGTCNSDPVDFYRCTCPYGFKGQDCDVPIHACISNPCKHGGTCHLKEGEEDGFWCICADGFEGENCEVNVDDCEDNDCENNSTCVDGINNYTCLCPPEYTGELCEEKLDFCAQDLNPCQHDSKCILTPKGFKCDCTPGYVGEHCDIDFDDCQDNKCKNGAHCTDAVNGYTCICPEGYSGLFCEFSPP
[5]
  Cdc42 activation: significantly reduced
[6]
  Rho activation: unaltered
[7]; Robo4^+/+ mice
  VEGF-A induced leak of Evans Blue from the retinal blood vessels: suppressed
[7]; Robo4^AP/AP mice
  VEGF-A induced leak of Evans Blue from the retinal blood vessels: refractory
[8]
  VEGF-A-induced VEGFR2 phosphorylation: no effect
[9]
  mortality: lower mortality
  survivability rate: 25% and 50%
[9]; iv
  Av. Wt.: 17.4 grams and 18.5 grams and 16.0 grams and 15.4 grams
[10]
  reduction in neovascularization: 63%
[11]
  VEGF-A-dependent Rac1 activation: prevented
[12]
  fibronectin-driven cell migration (haptotaxis): blocked
[13]; Robo4^+/+ endothelial cells
  VEGF-A-dependent tube formation: inhibited
[13]; Robo4^AP/AP endothelial cells
  VEGF-A-dependent tube formation, inhibitory activity: lost
[14]
  cell spreading on fibronectin: markedly inhibited
[14]; endothelial cells on 9-11 fragment of fibronectin and Slit2
  cellular protrusive activity stimulated by integrin ligation (spreading): suppressed
[15]
  VEGF-A-stimulated phosphorylation of c-Src: reduced
[16]
  VEGF-165-induced ARF6 activation: prevented
[17]; Robo4^+/+ endothelial cells
  VEGF-A-dependent endothelial cell migration: inhibited
[17]; Robo4^AP/AP endothelial cells
  VEGF-A-dependent endothelial cell migration, inhibitory activity: lost
[18]
  angiogenesis in oxygen-induced retinopathy: markedly reduced
[19]
  fibronectin-induced increase in ARF6-GTP: efficiently blocked
[20]
  VEGF-A-enhanced accumulation of HRP in the lower chamber: prevented
[21]
  VEGF-stimulated Rac activation: completely suppressed
[22]
  bFGF-induced endothelial tube formation: blocked
[23]
  VEGF-A-stimulated leak of Evans Blue into the dermis: prevented
[24]
  angiogenesis in laser-induced choroidal neovascularization: reduced
[25]
  concentration of inflammatory cells in bronchoalveolar lavages (BAL): significantly lower
  concentration of protein in bronchoalveolar lavages (BAL): significantly lower
[25]; listed as Slit protein
  concentration of inflammatory cells in bronchoalveolar lavages (BAL): significantly reduced
  concentration of protein in bronchoalveolar lavages (BAL): significantly reduced
[26]
  fibronectin-induced increase in Rac-GTP: efficiently blocked

B2: SlitD1 (protein)
chain: ILNKVAPQACPAQCSCSGSTVDCHGLALRSVPRNIPRNTERLDLNGNNITRITKTDFAGLRHLRVLQLMENKISTIERGAFQDLKELERLRLNRNHLQLFPELLFLGTAKLYRLDLSENQIQAIPRKAFRGAVDIKNLQLDYNQISCIEDGAFRALRDLEVLTLNNNNITRLSVASFNHMPKLRTFRLHSNNLYCDCHLAWLSDWLRQRPRVGLYTQCMGPSHLRGHNVAEVQKREFVCSGHQS
[27]
  Inhibition of VEGF mediated endothelial cell migration: active
